# Assay results: patent US5013542A, “Method to inhibit adhesion of disease-causing microorganisms to teeth” (Forsyth Dental Infirmary for Children, priority 1988, dated 1991)
# Key:
# Experiment in all cases: Adhesion of radioactively labeled bacteria to treated hydroxyapatite (HA)
# Assay type in all cases: cell-based
# Streptococcus mitis = details: HA treated with the protein/peptide, saliva-treated HA = 100%
# Procedure: (§1) PRP-1 and PRP-1(Tl) were investigated for their abilities to promote adhesion of bacteria to HA. Essentially, the method is to treat HA samples with nothing (negative control), saliva (positive control), or the respective proteins or peptides. The excess agent is removed by washing, and suspensions of radioactively labeled bacteria are added to the treated HA. After a suitable time, the excess bacteria are removed by washing and those remaining adsorbed to the HA are counted in a scintillation counter. In the table of results, bacterial adsorption to saliva-treated HA is considered to be 100%, and adsorption to PRP-1 or PRP-1(Tl)-treated HA expressed as a percentage of this reference value. This approach is necessary because of the diverse behaviors of different bacteria.
# Streptococcus mutans = details: HA treated with the protein/peptide, saliva-treated HA = 100%
# Procedure: as §1
# Streptococcus sanguis = test system: Streptococcus sanguis
# Procedure: as §1
# Actinomyces viscosus = details: HA treated with the protein/peptide, saliva-treated HA = 100%
# Procedure: as §1
# Bacteroides gingivalis = test system: Bacteroides gingivalis
# Procedure: as §1
molecule,measurement,setting,value
"PRP-1: acidic proline-rich phosphoprotein derived from human saliva, 150 residues; sequence shown in the diagram (protein, UniProt P02810 17-166, looked up) Salivary acidic proline-rich …: QDLDEDVSQEDVPLVISDGGDSEQFIDEERQGPPLGGQQSQPSAGDGNQNDGPQQGPPQQGGQQQQGPPPPQGKPQGPPQQGGHPPPPQGRPQGPPQQGGHPRPPRGRPQGPPQQGGHQQGPPPPPPGKPQGPPPQGGRPQGPPQGQSPQ",PERCENT ADHESION COMPARED TO SALIVA-TREATED HA,Streptococcus mitis,38%
same,PERCENT ADHESION COMPARED TO SALIVA-TREATED HA,Streptococcus mutans,81%
same,adhesion of organism to treated HA (in words),"Streptococcus sanguis; S. sanguis, versus saliva-treated HA",higher than adhesion to saliva-treated HA
same,PERCENT ADHESION COMPARED TO SALIVA-TREATED HA,"Streptococcus sanguis; Streptococcus sanguis, HA treated with the protein/peptide, saliva-treated HA = 100%",144%
same,PERCENT ADHESION COMPARED TO SALIVA-TREATED HA,Actinomyces viscosus,105%
same,adhesion of organism to treated HA (in words),"Bacteroides gingivalis; B. gingivalis, versus saliva-treated HA",higher than adhesion to saliva-treated HA
same,PERCENT ADHESION COMPARED TO SALIVA-TREATED HA,"Bacteroides gingivalis; Bacteroides gingivalis, HA treated with the protein/peptide, saliva-treated HA = 100%",335%
